{"source": "patent US20200317768A1", "about": "(published 2020)", "binders": {"B1": {"name": "MS_M103205H795-SG1/M103202L889-SK1 (antibody, human IgG1, kappa)", "heavy": "not shown", "light": "DIVMTQSPATLSLSPGERATLSCTSSQSVYHANWLSWFQQKPGQPPKLLIYWASTLAYGVPSRFSGSGSGTDFTLTISSLQPEDAATYYCAGGYGGGRYAFGQGTKVEIKRTVAAPSVFIFPPSDEQLKSGTASVVCLLNNFYPREAKVQWKVDNALQSGNSQESVTEQDSKDSTYSLSSTLTLSKADYEKHKVYACEVTHQGLSSPVTKSFNRGEC", "notes": "Parent of the Fc variants; also called MS1032LO06-SG1"}, "B2": {"name": "M103205H795-MY001/M103202L889-SK1 (antibody, human IgG1, kappa)", "heavy": "not shown", "light": "B1 light", "notes": "Substitutions introduced into M103205H795-SG1; expressed with M103202L889-SK1 as light chain"}, "B3": {"name": "M103205H795-MY047/M103202L889-SK1 (antibody, human IgG1, kappa)", "heavy": "not shown", "light": "B1 light", "notes": "as for B2"}, "B4": {"name": "M103205H795-MY048/M103202L889-SK1 (antibody, human IgG1, kappa)", "heavy": "not shown", "light": "B1 light", "notes": "as for B2"}, "B5": {"name": "M103205H795-MY049/M103202L889-SK1 (antibody, human IgG1, kappa)", "heavy": "not shown", "light": "B1 light", "notes": "as for B2"}, "B6": {"name": "M103205H795-MY050/M103202L889-SK1 (antibody, human IgG1, kappa)", "heavy": "QVTLKESGPVLVKPTETLTLTCTVSGIDLSHDDISWVRQAPGKGLEWVGIISYAGSTYYASWAKGRLTISKDTSKNQVVLTMTNMDPVDTATYYCARGVPAYSHGGDLWGQGTLVTVSSASTKGPSVFPLAPSSKSTSGGTAALGCLVKDYFPEPVTVSWNSGALTSGVHTFPAVLQSSGLYSLSSVVTVPSSSLGTQTYICNVNHKPSNTKVDKKVEPKSCDKTHTCPPCPAPELLNGPSVFLFPPKPKDTLMISRTPEVTCVVVDVAEEDPEVKFNWYVDGVEVHNAKTKPREEQYNSTYRVVSVLTVLHQDWLNGKEYKCKVSNKALPAPIEKTISKAKGQPREPQVYTLPPSREEMTKNQVSLTCLVKGFYPSDIAVEWESNGQPENNYKTTPPVLDSDGSFFLYSKLTVDKSRWQQGNVFSCSVMHEALHNHYTQKSLSLSP", "light": "B1 light", "notes": "as for B2"}, "B7": {"name": "M103205H795-MY051/M103202L889-SK1 (antibody, human IgG1, kappa)", "heavy": "B6 heavy with A269S, P273G", "light": "B1 light", "notes": "as for B2"}, "B8": {"name": "M103205H795-MY052/M103202L889-SK1 (antibody, human IgG1, kappa)", "heavy": "B6 heavy with A269S, P398M", "light": "B1 light", "notes": "as for B2"}, "B9": {"name": "M103205H795-MY101/M103202L889-SK1 (antibody, human IgG1, kappa)", "heavy": "B6 heavy with A269S, A332K, P398M", "light": "B1 light", "notes": "also called MS1032LO06-MY101"}, "B10": {"name": "M103205H795-MY105/M103202L889-SK1 (antibody, human IgG1, kappa)", "heavy": "B6 heavy with S241V, A269S, P398M", "light": "B1 light", "notes": "as for B2"}, "B11": {"name": "M103205H795-MY115/M103202L889-SK1 (antibody, human IgG1, kappa)", "heavy": "B6 heavy with P398M", "light": "B1 light", "notes": "as for B2"}, "B12": {"name": "M103205H795-MY117/M103202L889-SK1 (antibody, human IgG1, kappa)", "heavy": "B6 heavy with L236W, P398M", "light": "B1 light", "notes": "as for B2"}, "B13": {"name": "M103205H795-MY141/M103202L889-SK1 (antibody, human IgG1, kappa)", "heavy": "B6 heavy with E270H, P398M", "light": "B1 light", "notes": "as for B2"}, "B14": {"name": "M103205H795-MY147/M103202L889-SK1 (antibody, human IgG1, kappa)", "heavy": "B6 heavy with L237W, A269S, P398M", "light": "B1 light", "notes": "as for B2"}, "B15": {"name": "M103205H795-MY197/M103202L889-SK1 (antibody, human IgG1, kappa)", "heavy": "B6 heavy with A269S, E270D, A332K, P398M", "light": "B1 light", "notes": "as for B2"}}, "target": "T1, human FcγRIIaR extracellular domain, C-terminal His-tag (human, UniProt P12318 34-217)", "T1 construct": "also called human FcγRIIa (type R); FcgRIIaR", "T1 chain": "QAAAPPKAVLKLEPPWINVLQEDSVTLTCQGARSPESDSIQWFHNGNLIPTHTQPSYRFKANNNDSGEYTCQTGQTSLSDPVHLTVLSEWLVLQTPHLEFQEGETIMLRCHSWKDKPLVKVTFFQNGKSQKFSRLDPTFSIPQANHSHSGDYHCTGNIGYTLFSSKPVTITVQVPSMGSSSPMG", "assay": "SPR (Biacore), antibody captured, FcgR analyte", "note": "Positions count from the first letter of the chain named.", "data": [{"binder": "B1", "values": [{"measurement": "Kd", "result": 1100, "unit": "nM"}]}, {"binder": "B2", "values": [{"measurement": "Kd", "result": 8200, "unit": "nM"}]}, {"binder": "B3", "values": [{"measurement": "Kd", "result": 88, "unit": "nM"}]}, {"binder": "B4", "values": [{"measurement": "Kd", "result": 3100, "unit": "nM"}]}, {"binder": "B5", "values": [{"measurement": "Kd", "result": 78000, "unit": "nM"}]}, {"binder": "B6", "values": [{"measurement": "Kd", "result": 1500, "unit": "nM"}]}, {"binder": "B7", "values": [{"measurement": "Kd", "result": 2800, "unit": "nM"}]}, {"binder": "B8", "values": [{"measurement": "Kd", "result": 14000, "unit": "nM"}]}, {"binder": "B9", "values": [{"measurement": "Kd", "result": 870, "unit": "nM"}]}, {"binder": "B10", "values": [{"measurement": "Kd", "result": 1400, "unit": "nM"}]}, {"binder": "B11", "values": [{"measurement": "Kd", "result": 640, "unit": "nM"}]}, {"binder": "B12", "values": [{"measurement": "Kd", "result": 10000, "unit": "nM"}]}, {"binder": "B13", "values": [{"measurement": "Kd", "result": 1600, "unit": "nM"}]}, {"binder": "B14", "values": [{"measurement": "Kd", "result": 1100, "unit": "nM"}]}, {"binder": "B15", "values": [{"measurement": "Kd", "result": 710, "unit": "nM"}]}]}
